Laboratory results from patent US11299524B2, “KIF13B-derived peptide and method of inhibiting angiogenesis” (THE BOARD OF TRUSTEES OF THE UNIVERSITY OF ILLINOIS, priority 2016, dated 2022).

Molecular target: T1, PDGFRβ (Homo sapiens, UniProt P09619)
T1 construct: endogenous in cells
Experiment: pull-down on streptavidin beads followed by mass spec analysis
Format: binding
Conditions: peptide immobilized on streptavidin beads
Method: Additionally, the sequence of DUF2C5 is highly conserved in mammalian KIF13B. […] To further test the specificity of DUF2C5, pull-down of proteins was conducted using DUF2C5 or control peptide (CT23) immobilized on streptavidin beads followed by mass spec analysis of the binding proteins. This analysis detected the presence of KIF13B, VEGFR2, and co-receptor NRP1 (number of hits were 28, 11, and 5, respectively). Tie2, Par1, S1PR1, and FGFR were not found. Other cargo for KIF13B (e.g., CentA, hDlg) were also not found. […] The affinity of each receptor tyrosine kinase was subsequently tested via surface plasmon resonance (SPR) with BIACORE (UIC, RRC), using DUF2C5 and CT23 on an avidin-coated chip, and recombinant cytosolic domain of kinases (Fisher Scientific).

T1 sequence (P09619 33-1106): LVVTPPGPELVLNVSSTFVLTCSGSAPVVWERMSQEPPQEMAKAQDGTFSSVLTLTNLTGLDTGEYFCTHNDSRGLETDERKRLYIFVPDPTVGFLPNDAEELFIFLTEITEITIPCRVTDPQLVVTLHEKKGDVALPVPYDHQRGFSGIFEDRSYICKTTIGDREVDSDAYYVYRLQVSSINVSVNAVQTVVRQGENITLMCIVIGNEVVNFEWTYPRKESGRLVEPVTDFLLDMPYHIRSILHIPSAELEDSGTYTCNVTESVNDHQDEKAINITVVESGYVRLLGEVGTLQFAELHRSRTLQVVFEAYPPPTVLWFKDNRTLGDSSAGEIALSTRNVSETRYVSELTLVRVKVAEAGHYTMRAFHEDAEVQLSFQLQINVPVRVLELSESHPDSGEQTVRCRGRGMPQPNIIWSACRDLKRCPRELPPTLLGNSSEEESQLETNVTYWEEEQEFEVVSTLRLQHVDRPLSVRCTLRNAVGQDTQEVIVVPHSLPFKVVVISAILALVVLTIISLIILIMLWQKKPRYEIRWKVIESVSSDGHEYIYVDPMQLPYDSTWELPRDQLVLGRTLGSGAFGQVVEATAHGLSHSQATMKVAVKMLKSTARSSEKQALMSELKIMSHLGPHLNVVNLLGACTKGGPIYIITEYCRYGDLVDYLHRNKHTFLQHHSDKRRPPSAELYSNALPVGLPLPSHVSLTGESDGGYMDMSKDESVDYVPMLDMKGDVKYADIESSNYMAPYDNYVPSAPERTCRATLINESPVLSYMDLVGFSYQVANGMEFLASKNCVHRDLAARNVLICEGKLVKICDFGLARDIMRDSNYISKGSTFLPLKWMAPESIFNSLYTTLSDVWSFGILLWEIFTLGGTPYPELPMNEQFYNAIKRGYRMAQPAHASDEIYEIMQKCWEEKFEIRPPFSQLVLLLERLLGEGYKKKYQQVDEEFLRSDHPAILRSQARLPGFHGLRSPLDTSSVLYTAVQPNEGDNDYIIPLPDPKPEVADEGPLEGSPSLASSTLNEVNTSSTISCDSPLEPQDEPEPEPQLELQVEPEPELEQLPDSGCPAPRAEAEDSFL

## CT23: negative control, C-terminal 23-amino acid peptide, residues 1650 to 1672 of KIF13B (RVRASELRSFSRMLAGDPGCSPG)
  PDGFRβ among binding proteins, number of hits: did not interact
